This series deals with Escherichia coli TOP10. Briefly: shrunken log2 fold change of peptide-encoding DNA abundance (4.5 h post-induction vs induction); higher = less antimicrobial activity (less host growth inhibition). Conditions: time post-induction: 4.5 h; library: site-saturation at positions 5, 18, 19, 20.
Turning to RRIRMRPPRLPRPRPRPPVCPRP, the “shrunken log2 fold change” value is 0.439.

As to RRIRKRPPRLPRPRPRPWTKPRP, the “shrunken log2 fold change” value is -0.0423.

For the sequence RRIRERPPRLPRPRPRPDTTPRP, the “shrunken log2 fold change” value was 0.0503.

For RRIRIRPPRLPRPRPRPETEPRP, the “shrunken log2 fold change” value came to 0.0848.

Take RRIRGRPPRLPRPRPRPWDVPRP: the “shrunken log2 fold change” value was -0.00788.

In the case of RRIRKRPPRLPRPRPRPMRVPRP, the “shrunken log2 fold change” value came out at 0.848.

Turning to RRIRHRPPRLPRPRPRPKVRPRP, the “shrunken log2 fold change” value was -0.0711.

With RRIRSRPPRLPRPRPRPNQIPRP, the “shrunken log2 fold change” value came to 0.0721.

In the case of RRIRHRPPRLPRPRPRPNQIPRP, the “shrunken log2 fold change” value was -0.327.

Take RRIRNRPPRLPRPRPRPINIPRP: the “shrunken log2 fold change” value was 0.00587.

As to RRIRQRPPRLPRPRPRPKKEPRP, the “shrunken log2 fold change” value is 0.00476.

For RRIRARPPRLPRPRPRPKVRPRP, the “shrunken log2 fold change” value was 0.047.

As to RRIRRRPPRLPRPRPRPAFAPRP, the “shrunken log2 fold change” value turned out to be 0.456.

Regarding RRIRCRPPRLPRPRPRPHGCPRP, the “shrunken log2 fold change” value is -0.037.

For the sequence RRIRMRPPRLPRPRPRPRRWPRP, the “shrunken log2 fold change” value worked out at 0.881.

With RRIRLRPPRLPRPRPRPKTIPRP, the “shrunken log2 fold change” value was -0.109.

With RRIRPRPPRLPRPRPRPMRMPRP, the “shrunken log2 fold change” value was 0.268.

For the sequence RRIRQRPPRLPRPRPRPGFIPRP, the “shrunken log2 fold change” value was -0.408.

For the sequence RRIRMRPPRLPRPRPRPTNSPRP, the “shrunken log2 fold change” value was -0.302.

Regarding RRIRGRPPRLPRPRPRPIKCPRP, the “shrunken log2 fold change” value was -0.0104.

As for RRIRSRPPRLPRPRPRPNLDPRP, the “shrunken log2 fold change” value is -0.0975.

RRIRDRPPRLPRPRPRPNGTPRP: the “shrunken log2 fold change” value came to 0.00868.

For RRIRCRPPRLPRPRPRPYCGPRP, the “shrunken log2 fold change” value is -0.888.

As for RRIRIRPPRLPRPRPRPTGQPRP, the “shrunken log2 fold change” value was found to be 0.0119.

For RRIRCRPPRLPRPRPRPQGRPRP, the “shrunken log2 fold change” value was 0.445.

Take RRIRDRPPRLPRPRPRPTKSPRP: the “shrunken log2 fold change” value was 0.366.

For the sequence RRIRKRPPRLPRPRPRPGYGPRP, the “shrunken log2 fold change” value was 0.13.

For RRIRHRPPRLPRPRPRPTTGPRP, the “shrunken log2 fold change” value was -0.117.

RRIRVRPPRLPRPRPRPTMTPRP: the “shrunken log2 fold change” value came to 0.11.

Regarding RRIRVRPPRLPRPRPRPTAEPRP, the “shrunken log2 fold change” value came to 0.0994.

With RRIRKRPPRLPRPRPRPLTRPRP, the “shrunken log2 fold change” value was 0.31.

For RRIRWRPPRLPRPRPRPGSEPRP, the “shrunken log2 fold change” value came to 0.385.

Turning to RRIRWRPPRLPRPRPRPADQPRP, the “shrunken log2 fold change” value was 0.0591.

Take RRIRLRPPRLPRPRPRPIYKPRP: the “shrunken log2 fold change” value is -0.489.

Take RRIRVRPPRLPRPRPRPLWVPRP: the “shrunken log2 fold change” value is -0.147.

In the case of RRIRWRPPRLPRPRPRPKTPPRP, the “shrunken log2 fold change” value amounted to 0.894.

For the sequence RRIRDRPPRLPRPRPRPKWNPRP, the “shrunken log2 fold change” value is -0.159.

Regarding RRIRGRPPRLPRPRPRPIRAPRP, the “shrunken log2 fold change” value stood at 0.602.

As for RRIRRRPPRLPRPRPRPAMKPRP, the “shrunken log2 fold change” value worked out at 0.373.

Consider RRIRLRPPRLPRPRPRPTPVPRP, for which the “shrunken log2 fold change” value was 0.559.

Turning to RRIRWRPPRLPRPRPRPDDNPRP, the “shrunken log2 fold change” value worked out at 0.174.

With RRIRKRPPRLPRPRPRPHWFPRP, the “shrunken log2 fold change” value amounted to 0.096.

As to RRIRRRPPRLPRPRPRPEAKPRP, the “shrunken log2 fold change” value turned out to be 4.76.

Consider RRIRLRPPRLPRPRPRPRFKPRP, for which the “shrunken log2 fold change” value amounted to 0.0114.

For RRIRGRPPRLPRPRPRPKDPPRP, the “shrunken log2 fold change” value stood at 0.517.

As to RRIRRRPPRLPRPRPRPCFHPRP, the “shrunken log2 fold change” value was -0.00606.

As to RRIRNRPPRLPRPRPRPEWKPRP, the “shrunken log2 fold change” value turned out to be 0.0303.

For the sequence RRIRMRPPRLPRPRPRPINFPRP, the “shrunken log2 fold change” value is -0.0648.

RRIRSRPPRLPRPRPRPICCPRP: the “shrunken log2 fold change” value was -0.0929.

Consider RRIRPRPPRLPRPRPRPAYDPRP, for which the “shrunken log2 fold change” value was -0.26.

For the sequence RRIRRRPPRLPRPRPRPPNEPRP, the “shrunken log2 fold change” value worked out at 0.804.

On to RRIRDRPPRLPRPRPRPPWEPRP, for which the “shrunken log2 fold change” value was determined as 0.0453.

For the sequence RRIRLRPPRLPRPRPRPQHGPRP, the “shrunken log2 fold change” value was -0.0844.

With RRIRSRPPRLPRPRPRPVERPRP, the “shrunken log2 fold change” value was found to be 0.187.

Regarding RRIRDRPPRLPRPRPRPNQLPRP, the “shrunken log2 fold change” value is -0.0966.

Take RRIRKRPPRLPRPRPRPRAIPRP: the “shrunken log2 fold change” value came to 0.304.

As to RRIRCRPPRLPRPRPRPSDCPRP, the “shrunken log2 fold change” value is -0.387.

Regarding RRIRQRPPRLPRPRPRPMCLPRP, the “shrunken log2 fold change” value is -0.184.

On to RRIRARPPRLPRPRPRPSGCPRP, for which the “shrunken log2 fold change” value was found to be 0.0438.

As to RRIRPRPPRLPRPRPRPEVTPRP, the “shrunken log2 fold change” value is 0.198.

For RRIRLRPPRLPRPRPRPPDSPRP, the “shrunken log2 fold change” value was found to be 0.0353.

With RRIRCRPPRLPRPRPRPLLDPRP, the “shrunken log2 fold change” value turned out to be 0.0618.

On to RRIRARPPRLPRPRPRPFVQPRP, for which the “shrunken log2 fold change” value is -0.00645.

For the sequence RRIRRRPPRLPRPRPRPEVVPRP, the “shrunken log2 fold change” value was 0.472.

On to RRIRHRPPRLPRPRPRPFPYPRP, for which the “shrunken log2 fold change” value is -0.0859.

RRIRPRPPRLPRPRPRPFENPRP: the “shrunken log2 fold change” value is -0.00884.

In the case of RRIRHRPPRLPRPRPRPELRPRP, the “shrunken log2 fold change” value was determined as 0.0303.

Take RRIRCRPPRLPRPRPRPITLPRP: the “shrunken log2 fold change” value is -0.441.

Regarding RRIRNRPPRLPRPRPRPEQNPRP, the “shrunken log2 fold change” value is -0.21.

As for RRIRKRPPRLPRPRPRPCPNPRP, the “shrunken log2 fold change” value is -0.0875.

On to RRIRVRPPRLPRPRPRPWHPPRP, for which the “shrunken log2 fold change” value was -0.0956.

For RRIRYRPPRLPRPRPRPQCGPRP, the “shrunken log2 fold change” value is -0.46.

Regarding RRIRLRPPRLPRPRPRPGCAPRP, the “shrunken log2 fold change” value worked out at 0.444.

On to RRIRGRPPRLPRPRPRPCVIPRP, for which the “shrunken log2 fold change” value worked out at 0.033.

Regarding RRIRCRPPRLPRPRPRPIIEPRP, the “shrunken log2 fold change” value is -0.851.

RRIRQRPPRLPRPRPRPWSHPRP: the “shrunken log2 fold change” value was -0.105.

Regarding RRIRTRPPRLPRPRPRPSTEPRP, the “shrunken log2 fold change” value is -0.456.

With RRIRNRPPRLPRPRPRPDCCPRP, the “shrunken log2 fold change” value was found to be 0.00539.

With RRIRNRPPRLPRPRPRPVFYPRP, the “shrunken log2 fold change” value was -0.19.

Take RRIRVRPPRLPRPRPRPWPIPRP: the “shrunken log2 fold change” value was -0.0661.

For the sequence RRIRSRPPRLPRPRPRPFKCPRP, the “shrunken log2 fold change” value was -0.226.

Consider RRIRDRPPRLPRPRPRPTWYPRP, for which the “shrunken log2 fold change” value was -0.238.

As to RRIRFRPPRLPRPRPRPNSSPRP, the “shrunken log2 fold change” value was -0.247.

Turning to RRIRYRPPRLPRPRPRPCMRPRP, the “shrunken log2 fold change” value was -0.091.

In the case of RRIRMRPPRLPRPRPRPCYPPRP, the “shrunken log2 fold change” value is -0.352.

RRIRYRPPRLPRPRPRPMTIPRP: the “shrunken log2 fold change” value is -0.936.

With RRIRKRPPRLPRPRPRPPTIPRP, the “shrunken log2 fold change” value is 0.119.

Turning to RRIRERPPRLPRPRPRPCSQPRP, the “shrunken log2 fold change” value was -0.0493.

Consider RRIRYRPPRLPRPRPRPYCNPRP, for which the “shrunken log2 fold change” value is -0.515.

Regarding RRIRYRPPRLPRPRPRPIPMPRP, the “shrunken log2 fold change” value was -0.807.

As to RRIRWRPPRLPRPRPRPMIQPRP, the “shrunken log2 fold change” value is -0.000914.

Turning to RRIRHRPPRLPRPRPRPEAFPRP, the “shrunken log2 fold change” value was -0.0165.

In the case of RRIRIRPPRLPRPRPRPSIHPRP, the “shrunken log2 fold change” value is -1.28.

Turning to RRIRHRPPRLPRPRPRPWGIPRP, the “shrunken log2 fold change” value is -0.0176.

RRIRERPPRLPRPRPRPYIAPRP: the “shrunken log2 fold change” value was -0.946.

As for RRIRERPPRLPRPRPRPFQTPRP, the “shrunken log2 fold change” value was determined as 0.11.

In the case of RRIRFRPPRLPRPRPRPECCPRP, the “shrunken log2 fold change” value worked out at 0.225.

Consider RRIRARPPRLPRPRPRPDMHPRP, for which the “shrunken log2 fold change” value is -0.00915.

For the sequence RRIRGRPPRLPRPRPRPGICPRP, the “shrunken log2 fold change” value worked out at 0.808.

Regarding RRIRDRPPRLPRPRPRPCQEPRP, the “shrunken log2 fold change” value stood at 0.211.

In the case of RRIRRRPPRLPRPRPRPSVTPRP, the “shrunken log2 fold change” value is -0.041.

As for RRIRLRPPRLPRPRPRPCCPPRP, the “shrunken log2 fold change” value was -0.196.

For the sequence RRIRPRPPRLPRPRPRPHHAPRP, the “shrunken log2 fold change” value is -0.125.

As to RRIRSRPPRLPRPRPRPQLTPRP, the “shrunken log2 fold change” value was -0.136.

RRIRKRPPRLPRPRPRPALKPRP: the “shrunken log2 fold change” value is 0.48.

In the case of RRIRYRPPRLPRPRPRPNGSPRP, the “shrunken log2 fold change” value was -0.289.

Consider RRIRSRPPRLPRPRPRPLCQPRP, for which the “shrunken log2 fold change” value is -0.135.

With RRIRLRPPRLPRPRPRPNIAPRP, the “shrunken log2 fold change” value was -0.0706.

Turning to RRIRERPPRLPRPRPRPDEMPRP, the “shrunken log2 fold change” value is -0.0223.

Turning to RRIRCRPPRLPRPRPRPGDQPRP, the “shrunken log2 fold change” value is 0.256.

Consider RRIRLRPPRLPRPRPRPPVWPRP, for which the “shrunken log2 fold change” value turned out to be 0.591.

On to RRIRWRPPRLPRPRPRPGKFPRP, for which the “shrunken log2 fold change” value amounted to 0.26.

As for RRIRQRPPRLPRPRPRPFSEPRP, the “shrunken log2 fold change” value was -0.477.

RRIRRRPPRLPRPRPRPMSVPRP: the “shrunken log2 fold change” value is -0.0792.

For RRIRYRPPRLPRPRPRPKNVPRP, the “shrunken log2 fold change” value is 0.0242.

Regarding RRIRGRPPRLPRPRPRPKEHPRP, the “shrunken log2 fold change” value turned out to be 0.627.

Regarding RRIRSRPPRLPRPRPRPLLWPRP, the “shrunken log2 fold change” value is 0.236.

Consider RRIRTRPPRLPRPRPRPMPNPRP, for which the “shrunken log2 fold change” value was -0.17.

As for RRIRFRPPRLPRPRPRPAGFPRP, the “shrunken log2 fold change” value came out at 0.0553.

With RRIRARPPRLPRPRPRPTRWPRP, the “shrunken log2 fold change” value was 0.539.

For the sequence RRIRHRPPRLPRPRPRPNIEPRP, the “shrunken log2 fold change” value is -0.172.

On to RRIRERPPRLPRPRPRPCETPRP, for which the “shrunken log2 fold change” value was -0.336.

Take RRIRCRPPRLPRPRPRPKMKPRP: the “shrunken log2 fold change” value was -0.269.

In the case of RRIRRRPPRLPRPRPRPRYAPRP, the “shrunken log2 fold change” value was 0.284.

As for RRIRERPPRLPRPRPRPMHSPRP, the “shrunken log2 fold change” value came to 0.0314.

The values above are taken from the supplement of paper PMC9112550, “Optimization of the antimicrobial peptide Bac7 by deep mutational scanning” (BMC Biology, 2022).
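Also: peptides expressed intracellularly from a pBAD plasmid library in pooled LB shake-flask culture, induced with 0.3% L-arabinose, DNA abundance read by NGS, three biological replicates, DESeq2 with apeglm shrinkage.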
